Assay results reported in patent publication US20260191929A1.

Target: mouse CD117 (stem cell factor receptor, c-Kit) on mouse bone marrow and lung cells (mouse) (UniProt P05532)
Test: cell-based or functional assay

UniProt P05532, sequence (P05532 25-979): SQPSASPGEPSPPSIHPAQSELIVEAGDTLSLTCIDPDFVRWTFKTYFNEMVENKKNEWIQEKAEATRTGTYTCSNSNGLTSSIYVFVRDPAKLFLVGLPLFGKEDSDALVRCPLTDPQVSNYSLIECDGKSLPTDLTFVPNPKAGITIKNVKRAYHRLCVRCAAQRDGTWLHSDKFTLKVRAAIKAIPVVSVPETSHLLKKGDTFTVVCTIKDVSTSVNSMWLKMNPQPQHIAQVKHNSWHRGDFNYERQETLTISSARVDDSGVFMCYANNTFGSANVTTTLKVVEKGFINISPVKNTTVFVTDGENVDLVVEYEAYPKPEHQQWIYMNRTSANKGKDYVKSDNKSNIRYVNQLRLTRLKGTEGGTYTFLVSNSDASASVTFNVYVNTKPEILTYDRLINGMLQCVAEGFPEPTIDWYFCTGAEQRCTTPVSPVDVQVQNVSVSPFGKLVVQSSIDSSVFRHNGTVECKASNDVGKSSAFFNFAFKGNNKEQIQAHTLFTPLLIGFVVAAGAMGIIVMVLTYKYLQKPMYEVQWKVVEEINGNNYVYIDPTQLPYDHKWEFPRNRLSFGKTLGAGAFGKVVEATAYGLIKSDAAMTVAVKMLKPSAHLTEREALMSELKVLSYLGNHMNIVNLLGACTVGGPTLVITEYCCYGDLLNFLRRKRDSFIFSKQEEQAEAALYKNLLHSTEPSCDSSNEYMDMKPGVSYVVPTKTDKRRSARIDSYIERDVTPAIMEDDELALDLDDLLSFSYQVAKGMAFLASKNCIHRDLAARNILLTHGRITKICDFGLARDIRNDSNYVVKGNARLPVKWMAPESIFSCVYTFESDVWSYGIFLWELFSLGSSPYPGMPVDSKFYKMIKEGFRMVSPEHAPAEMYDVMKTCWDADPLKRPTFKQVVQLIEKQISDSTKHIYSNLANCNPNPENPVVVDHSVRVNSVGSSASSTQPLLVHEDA

gene editing (tdTomato) frequency in cKit+ lung cells after in vivo CD117/LNP-Cre: 90%
luciferase activity normalized to the frequency of antigen positive cells, Lin- cells, relative to CD45/LNP: 700 fold
luciferase activity normalized to the frequency of antigen positive cells, whole bone marrow (WBM), relative to CD45/LNP: 500 fold
Substance: purified rat anti-mouse CD117 (c-kit), clone 2B8 (BioLegend 93235), conjugated to LNP-mRNA (antibody)
